In the supplement of paper PMC7877785:
± gives the uncertainty stated by the source.

Test: self-splicing fitness, log relative to wild type (ln ratio); higher = more splicing; Tetrahymena group I intron in knt gene, E. coli kanamycin selection, DiMSum; sequences stand for … in CUCUCU…GGAGGGAAAAGUUAUCAGGCAUGCACCUGGUAGCUAGUCUUUAAACCAAUAGAUUGCAUCGGUUUAAAAGGCAAGACCGUCAAAUUGCGGGAAAGGGGUCAACAGCCGUUCAGUACCAAGUCUCAGGGGAAACUUUGAGAUGGCCUUGCAAAGGGUAUGGUAAUAAGCUGACGGACAUGGUCCUAACCACGCAGCCAAGUCCUAAGUCAACAGAUCUUCUGUUGAUAUGGAUGCAGUUCACAGACUAAAUGUCGGUCGGGGAAGAUGUAUUCUUCUCAUAAGAUAUAGUCGGACCUCUCCUUAAUGGGAGCUAGCGGAUGAAGUGAUGCAACACUGGAGCCGCUGGGAACUAAUUUGUAUGCGAAAGUAUAUUGAUUAGUUUUGGAGUACUCGUGGUCG
Method in brief: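 A randomised library covering all eight P1ex-region intron nucleotides was built with the intron in the knt kanamycin-resistance gene on pET-22b(+) and held in E. coli BL21(DE3). Cells were grown overnight at 37°C or 30°C on LB agar, with or without 25 μg/mL kanamycin, plus 100 μg/mL carbenicillin, 50 μM IPTG and 0.2% rhamnose, and pooled colonies were amplicon-sequenced on an Illumina HiSeq 2500. DiMSum fitness is the error-weighted combination of wild-type-normalised replicate fold changes, kanamycin versus none.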

Sequence	self-splicing fitness (ln) (30 °C)	self-splicing fitness (ln) (37 °C)
AUAUAGCAAUAUUACGGUUA	-1.12 ± 0.13	-0.372 ± 0.12
UCUGAGCAAUAUUACGGUCG	-4.19 ± 0.33	-2.67 ± 0.28
AUAUAGCAAUAUUACGAAAG	-3.28 ± 0.25	-2.08 ± 0.38
CACAAGCAAUAUUACGAAAA	-3.15 ± 0.17	-2.57 ± 0.24
AACGAGCAAUAUUACGAAGG	–	-2.3 ± 0.2
UACAAGCAAUAUUACGAGGG	-2.8 ± 0.14	-1.47 ± 0.14
UUGUAGCAAUAUUACGCAUG	-1.86 ± 0.13	0.0958 ± 0.14
AAGGAGCAAUAUUACGACUC	-1.25 ± 0.15	-0.365 ± 0.17
CGGCAGCAAUAUUACGGUGU	-4.04 ± 0.2	-2.55 ± 0.17
AUAAAGCAAUAUUACGUGUU	-2.97 ± 0.071	-1.11 ± 0.068
AGAGAGCAAUAUUACGUUCC	-1.63 ± 0.18	-3.14 ± 0.47
GUACAGCAAUAUUACGCCAG	-3.75 ± 0.24	-2.32 ± 0.45
AAAGAGCAAUAUUACGGAAG	-3.76 ± 0.21	-2.62 ± 0.33
CGAAAGCAAUAUUACGCCCG	-1.9 ± 0.18	-0.623 ± 0.21
UUAUAGCAAUAUUACGCUCA	-0.877 ± 0.38	-1.09 ± 0.42
CUGCAGCAAUAUUACGCGUG	-1.92 ± 0.12	-1.67 ± 0.16
AGAAAGCAAUAUUACGCUGG	-3.7 ± 0.36	-2.77 ± 0.31
UCCUAGCAAUAUUACGCCUG	-2.87 ± 0.39	-2.57 ± 0.46
GCUGAGCAAUAUUACGUGCC	-3.37 ± 0.34	–
AGGUAGCAAUAUUACGCCGG	-1.09 ± 0.017	-0.556 ± 0.034
GGCGAGCAAUAUUACGUAAU	-1.4 ± 0.13	-0.339 ± 0.14
UAGCAGCAAUAUUACGGGCG	-0.609 ± 0.065	-0.24 ± 0.087
UUGAAGCAAUAUUACGAAGC	-3.4 ± 0.3	-2.48 ± 0.49
CGAGAGCAAUAUUACGUGGA	-3.7 ± 0.26	-2.89 ± 0.23
GGCGAGCAAUAUUACGCCUU	-3.21 ± 0.3	-1.81 ± 0.26

Sequence	self-splicing fitness (ln) (30 °C)	self-splicing fitness (ln) (37 °C)
UUAAAGCAAUAUUACGUAAG	-0.67 ± 0.082	-0.258 ± 0.11
GUGCAGCAAUAUUACGCGAU	-3.78 ± 0.31	-1.45 ± 0.31
UCAAAGCAAUAUUACGGUUA	-1.04 ± 0.092	-0.132 ± 0.087
CGCCAGCAAUAUUACGGUCG	-4.17 ± 0.19	-2.5 ± 0.2
UAGUAGCAAUAUUACGGAUG	-0.956 ± 0.084	-0.222 ± 0.087
UCCUAGCAAUAUUACGCAGG	-1.8 ± 0.46	-2.88 ± 0.37
AGUGAGCAAUAUUACGGGAA	-2.94 ± 0.29	–
GAGGAGCAAUAUUACGUUCC	–	-2.82 ± 0.48
CCUAAGCAAUAUUACGAGUU	-4.08 ± 0.2	-2.22 ± 0.14
GCUGAGCAAUAUUACGCGCU	-3.05 ± 0.31	-1.53 ± 0.36
UGAAAGCAAUAUUACGUUAG	-1.1 ± 0.086	-0.448 ± 0.096
CUCGAGCAAUAUUACGGGGU	-3.46 ± 0.18	-2.54 ± 0.22
UCAUAGCAAUAUUACGUGAA	-2.56 ± 0.091	-1.61 ± 0.1
AAUAAGCAAUAUUACGCGCC	-0.204 ± 0.15	-0.572 ± 0.16
GCUGAGCAAUAUUACGAUGU	-2.49 ± 0.1	-0.739 ± 0.12
ACCCAGCAAUAUUACGUAGA	-2.03 ± 0.1	-1.39 ± 0.11
UUACAGCAAUAUUACGGAGG	-2.31 ± 0.22	-2.1 ± 0.36
CCCGAGCAAUAUUACGCCGC	-3.53 ± 0.43	-1.59 ± 0.47
UCACAGCAAUAUUACGCACU	-2.56 ± 0.17	-2.8 ± 0.24
AACGAGCAAUAUUACGGCCU	-1.16 ± 0.2	-0.95 ± 0.2
GAAUAGCAAUAUUACGCCCA	-0.91 ± 0.17	-0.732 ± 0.24
UCUGAGCAAUAUUACGAUUA	-1.85 ± 0.17	-1.49 ± 0.21
CUGAAGCAAUAUUACGAAUG	-0.544 ± 0.083	0.252 ± 0.12
UGCAAGCAAUAUUACGGGUA	-0.497 ± 0.084	0.0384 ± 0.095
GUCCAGCAAUAUUACGACGA	-2.69 ± 0.12	-0.712 ± 0.091

Sequence	self-splicing fitness (ln) (30 °C)	self-splicing fitness (ln) (37 °C)
AAUUAGCAAUAUUACGUUGU	-3.79 ± 0.15	-1.72 ± 0.15
AGGUAGCAAUAUUACGUCUC	-3.938 ± 0.036	-2.38 ± 0.047
CCCCAGCAAUAUUACGAUGA	-3.16 ± 0.16	-3.01 ± 0.19
CUAAAGCAAUAUUACGCCAG	-0.416 ± 0.13	0.13 ± 0.19
GAUAAGCAAUAUUACGAGGU	-3.42 ± 0.13	-2.79 ± 0.13
AGGUAGCAAUAUUACGGCGA	-0.281 ± 0.015	-0.0476 ± 0.033
GGCAAGCAAUAUUACGGCCA	-1.24 ± 0.17	-0.0702 ± 0.17
GUAGAGCAAUAUUACGCGUG	-1.18 ± 0.11	-0.777 ± 0.18
UCAGAGCAAUAUUACGAGGU	-3 ± 0.29	-2.5 ± 0.32
GAGUAGCAAUAUUACGUAGG	-3.9 ± 0.24	-1.81 ± 0.17
GCGAAGCAAUAUUACGUAGC	-3.43 ± 0.23	-2.22 ± 0.23
UGGCAGCAAUAUUACGCCAG	-1.46 ± 0.14	-1.59 ± 0.21
UUAAAGCAAUAUUACGGUUG	-1.13 ± 0.071	-0.199 ± 0.089
CAGUAGCAAUAUUACGCCAC	-2.54 ± 0.3	–
AACGAGCAAUAUUACGCGCA	-1.28 ± 0.094	-2.1 ± 0.12
GAUUAGCAAUAUUACGCCUG	-1.56 ± 0.2	-0.102 ± 0.19
GAGAAGCAAUAUUACGCGAC	-2.78 ± 0.17	-1.38 ± 0.15
GUUGAGCAAUAUUACGACCG	–	-1.77 ± 0.47
AUUAAGCAAUAUUACGCGCC	-1.18 ± 0.15	-0.862 ± 0.2
GUUGAGCAAUAUUACGGUUA	-1.88 ± 0.28	-2.09 ± 0.24
AUCGAGCAAUAUUACGUAUU	-3.67 ± 0.21	-2.5 ± 0.18
GCAUAGCAAUAUUACGCUCA	-0.595 ± 0.12	-0.211 ± 0.15
UGCUAGCAAUAUUACGGAGG	-2.23 ± 0.14	-1.13 ± 0.13
CCCUAGCAAUAUUACGUUGC	-3.75 ± 0.29	-1.82 ± 0.18
UCUUAGCAAUAUUACGCCUC	–	-2.31 ± 0.45

Sequence	self-splicing fitness (ln) (30 °C)	self-splicing fitness (ln) (37 °C)
UCCAAGCAAUAUUACGAAUC	–	-1.28 ± 0.19
AGUGAGCAAUAUUACGCAUG	-3.22 ± 0.29	-3.25 ± 0.43
AAAAAGCAAUAUUACGCCGU	-0.957 ± 0.064	-0.392 ± 0.072
ACCAAGCAAUAUUACGACCA	-1.03 ± 0.081	-1.02 ± 0.1
AUUUAGCAAUAUUACGAUAU	-1.34 ± 0.097	-0.998 ± 0.11
UACCAGCAAUAUUACGACUG	-4.48 ± 0.39	-3.05 ± 0.25
GUGCAGCAAUAUUACGGCAG	-2.71 ± 0.33	-1.04 ± 0.25
CCGGAGCAAUAUUACGCUUU	-4.14 ± 0.3	-2.47 ± 0.17
AAACAGCAAUAUUACGUAGG	-1.85 ± 0.057	-1.34 ± 0.08
AGCAAGCAAUAUUACGGUGG	-2.65 ± 0.1	-2.32 ± 0.15
CGCAAGCAAUAUUACGCGGU	-2.75 ± 0.11	-2.44 ± 0.17
AACGAGCAAUAUUACGUGCC	-3.37 ± 0.27	-1.85 ± 0.3
CUUAAGCAAUAUUACGUAUU	-4.4 ± 0.31	-2.25 ± 0.23
CUAUAGCAAUAUUACGUGUA	-2.77 ± 0.33	-2.55 ± 0.26
AGAUAGCAAUAUUACGCUGC	–	-1.26 ± 0.34
GCUGAGCAAUAUUACGGCUA	-2.46 ± 0.19	-1.66 ± 0.19
UCAGAGCAAUAUUACGUAGG	-0.836 ± 0.12	-0.744 ± 0.17
UGUCAGCAAUAUUACGUAAA	-0.534 ± 0.13	-0.324 ± 0.16
CCUGAGCAAUAUUACGAACG	-2.81 ± 0.26	-1.48 ± 0.27
AAGAAGCAAUAUUACGUAUA	-2.18 ± 0.14	-1.17 ± 0.15
UCAGAGCAAUAUUACGCCGA	-3.18 ± 0.33	-1.63 ± 0.23
UCAUAGCAAUAUUACGACUG	-1.04 ± 0.1	-0.379 ± 0.14
GUCUAGCAAUAUUACGAAGA	-3.16 ± 0.24	-2.24 ± 0.2
